Data from patent US20020015966A1, “Effector-specific protein assembly and uses thereof” (priority 2000, published 2002).

Key:
ER-α = test: mammalian two-hybrid assay of ER-α helix 1-LBD interaction; assay type: cell-based; settings: HepG2 cells, G5E1B-Luc reporter
Description: Shown are mammalian two-hybrid assays of Gal fusions containing helix 1 of ER-α with VP16 fusions of the ER LBD containing or lacking helix 1. HepG2 cells were cotransfected with G5E1B-Luc reporter, the appropriate combination of the expression vectors, and a ligand or vehicle. “E2” denotes estradiol; “4HT” denotes 4-hydroxy tamoxifen; and “ICI” denotes ICI-172,780.
HepG2 cells were maintained in Dulbecco's modified Eagle medium supplemented with 10% fetal calf serum. For transfection the cells were plated the day before into 24-well dishes at density 10^5 cells/well in DMEM supplemented with 10% charcoal-stripped serum. Transfections were performed by the calcium phosphate co-precipitation method. […] The amount of DNA was adjusted to 500 ng total per well with pBluescript vector.
The cells were washed with PBS the next morning and fresh media containing the appropriate ligands was added. The cells were harvested 24 hours later and assayed for luciferase (Molecular Probes) and β-Galactosidase activity (Tropix) on an MLX luminometer. All experiments were performed at least twice in duplicate.

[1] = target: T1, GST-TR hinge fusion / TR LBD (Homo sapiens, UniProt P10828); test: GST pulldown assay of GST-TR204-260 with in vitro translated TR236-461; assay type: binding; settings: peptide 10 and 100 μM
T1 construct: GST pulldown assay of GST-TR204-260 with in vitro translated TR236-461; made in house; host or cells: The GST fusion was made in E. coli BL21; The LBD fragment was translated in vitro
T1 sequence (P10828 236-461): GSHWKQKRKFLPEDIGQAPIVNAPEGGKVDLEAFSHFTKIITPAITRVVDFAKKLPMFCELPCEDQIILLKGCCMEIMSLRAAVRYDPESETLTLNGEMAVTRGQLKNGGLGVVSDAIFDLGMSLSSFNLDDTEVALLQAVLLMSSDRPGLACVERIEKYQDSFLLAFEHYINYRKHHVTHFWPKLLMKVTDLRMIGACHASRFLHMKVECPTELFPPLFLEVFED
T1 sequence (P10828 204-260 partner limits assumed): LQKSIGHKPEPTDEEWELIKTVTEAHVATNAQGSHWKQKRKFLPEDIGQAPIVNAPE
Description: FIGS. 5A and 5B illustrate that N-CoR enhances the hinge-LBD interaction in the absence of ligand. In FIG. 5A, HepG2 cells were cotransfected with Gal4-hinge and VP16-LBD fusions of TR (left panel), RAR (middle panel), or RXR (right panel) in the presence or absence of Gal-RIP13ΔN4 construct and treated with the corresponding ligands or vehicle alone. […] Wt and mutant peptides of N-CoR IDI (top and bottom panels, respectively) were included where indicated at concentrations of 10 (+) and 100 (++) μM.
The appropriate GST fusion constructs were induced with […] and coupled to glutathione beads (Sepharose, Pharmacia). Interactions were performed overnight at 4° C. in buffer containing 20 mM Hepes pH 7.6, 100 mM NaCl, 20% glycerol, 2 mg/ml BSA, 1 mM DTT, and various protease inhibitors. The beads were subsequently washed twice with the interaction buffer containing 0.05% Triton X-100 and once with 50 mM Tris-HCl pH 8. Ligands or peptides were included in the washes where appropriate. The bound proteins were eluted with 15 mM glutathione (Sigma) for 15 minutes at 37° C. and analyzed by SDS-PAGE and fluorography (Amplify, Amersham). The sequence of the N-CoR RID peptide was […].

TR 204-461 = target: T2, TR 204-461 (Homo sapiens, UniProt P10828); test: protease digestion assay (trypsin) of TR LBD; assay type: biochemical; settings: in the absence of ligand; 1 mM peptide, trypsin 7 minutes at room temperature
T2 construct: Flag (N); made in house; host or cells: in vitro translation
T2 sequence (P10828 204-461): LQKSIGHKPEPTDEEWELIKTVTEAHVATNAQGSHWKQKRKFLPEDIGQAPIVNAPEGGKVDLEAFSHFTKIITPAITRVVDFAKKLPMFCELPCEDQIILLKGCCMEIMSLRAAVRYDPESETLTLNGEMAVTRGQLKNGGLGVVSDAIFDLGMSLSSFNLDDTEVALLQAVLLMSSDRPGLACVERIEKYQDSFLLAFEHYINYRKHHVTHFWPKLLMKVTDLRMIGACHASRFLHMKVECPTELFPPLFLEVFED
Method: The mixture was digested with trypsin for 7 minutes at room temperature and analyzed by SDS-PAGE.
Subsequently, wild-type or mutated N-CoR peptides were added to final concentrations of 1 mM, and the reaction mixtures was further incubated for 30 minutes on ice. BSA was added to the reactions with no peptides to supplement for equal protein concentration in all the reaction mixtures. Finally, […] of trypsin was added to the indicated tubes, and the protein digestion was performed at room temperature for 7 minutes. The reactions were stopped with the addition of SDS-sample buffer and boiling. The samples were run on a 15% SDS-gel that was then dried and exposed to film for 1 hour.

Substance | hinge-LBD interaction of ER-α (ER-α) | interaction between a GST-TR hinge fusion and the TR LBD ([1]; in the absence of ligand) | interaction between a GST-TR hinge fusion and the TR LBD ([1]; in the presence of ligand) | new protease resistant species with a lower molecular weight (TR 204-461) | stabilization of TR LBD fragment against trypsin digestion (TR 204-461)
4-hydroxy tamoxifen | stronger effect | – | – | – | –
ASNLGEDIIKALMGSFDD [wild type NCoR RID I peptide] | – | strongly stimulated | did not affect | presence of a new protease resistant species | some apparent stabilization
